Data taken from the DeepSol protein solubility set.

assay: soluble on expression in E. coli; label from the status in PepcDB or PDB records

| Sequence | soluble on expression in E. coli |
| --- | --- |
| MDEFPPIFIISLKDSPRKNIIAERLNALGLSFNFFDAIYGKELSKKQLSEINYDFYIQKFNARKRLTLGEIGCAISHIKLYEYIVKNNINEAIILEDDAIVSIYFKDIICDALKKISCKYEILFLDHGKAKIFPFTRSLVERYRLAKYISPSKKSKRIIIRTTAYIITLNGARKLLNYAYPIRMPSDYLTGTLQLTGINAYGIEPPCVFGGPISEIDQIEDRYCLEHHHHHH | not soluble |
| MGLTFENNTIENFDVQATFGMMNFLEVVAINERDGENNVTEEVREQRVTVYSSKLNDQVEIVIDPDYDVSGINYDDEIELTGNVTARGWLYTFKGYNDNVQTEQAFKVRAAGIKKVGAVKQTQAPQPKEKQENKQ | not soluble |
| GPGSMEVYRRITERVRGALWAHHGRLMSERQFHRILAFVYNNKYEYQIRFDRMEVVGREWGGRVEVVTTPAGYLKRVRVNPCVEDLTLYQQQQLILSAYASACADGRKLMEQAEMNIYKQFLKDLKPIVMGIRDNPEFYTVPENSIETIGGVLQTGDSNNLCHTHRTIPAAKARQPTDEVRARQEWEQKWINSPRGQSWALTLRGKTYFTLHGPQYRPRGAPGAKKETLPLDIPAPYTAMDEKRLLKKNWMAYLDNKHVAEVMWTRVKIADREKRQRLLQETGRAWHRPINEEAINRW | not soluble |
| MSTAINSVEMSLSADEIRERVRAAGVVGAGGAGFPAHVKLQAQVEIFLVNAAECEPMLKVDQQLMWQQAARLVRGVQYAMTATGAREGVIALKEKYRRAIDALTPLLPDGIRLHILPDVYPAGDEVLTIWMATGRRVAPAALPASVGVVVNNVQTVLNIARAVEQRFPVTRRTLTVNGAVARPLTVTVPIGMSLREVLALAGGATVDDPGFINGGPMMGGLITSLDNPVTKTTGGLLVLPKSHPLIQRRMQDERTVLSVARTVCEQCRLCTDLCPRHLIGHELSPHLLVRAVNFHQAATPQLLLSALTCSECNVCESVACPVGISPMRINRMLKRELRAQNQRYEGPLNPADEMAKYRLVPVKRLIAKLGLSPWYQEAPLVEEEPSVEKVTLQLRQHIGASAVANVAVGERVTRGQCVADVPPGALGAPIHASIDGVVSAISEQAITVVRGLEHHHHHH | soluble |
| MSLDDLQSIRESREIRIAMSGQYSPFSFANEQNQIVGFDASISEALAQRLGVKVSIVTTPFDGIIAGLLAKKYDAIIASMTITPERLRAVDFVGPYYHAGRTIVVKEDSPINSLADLKDVTVGVTLGDAHDKWARARGNLKVKTYKGLPEMLVDLEAGRLDALVMDSVPVLVAVKETGQKVRIITPPDSDGGVEGMGIALRKNNPELKAAMQQALNDMLADGSYEKISMKWIGKDIREGHHHHHH | soluble |
| MALTEQKRVRLEKLSDENGIISALAFDQRGALKRLMVKHQTEEPTVAQMEELKVLVADELTKYASSMLLDPEYGLPATKALDEKAGLLLAYEKTGYDTTSTKRLPDCLDVWSAKRIKEEGADAVKFLLYYDVDSSDELNQEKQAYIERIGSECVAEDIPFFLEILAYDEKIADAGSVEYAKVKPHKVIGAMKVFSDPRFNIDVLKVEVPVNIKYVEGFAEGEVVYTREEAAAFFKAQDEATNLPYIYLSAGVSAKLFQDTLVFAHESGANFNGVLCGRATWAGSVEAYIKDGEAAARECVRTTGFENIDELNKVLQRTATSWKERV | soluble |
| MGSDKIHHHHHHQSTGQVTLGVLTDMSSVYADSAGKGSVAAVQLAIEDVGGKALGQPVKLVSADYQMKTDVALSIAREWFDRDGVDAIFDVVNSGTALAINNLVKDKKKLAFITAAAADQIGGTECNGYGIGFLYNFTSIVKTVVQAQLAKGYKTWFLMLPDAAYGDLMNAAIRRELTAGGGQIVGSVRFPFETQDFSSYLLQAKASGAQLIVSTSGGAANINIMKQAREFGLPSKTQKVGGMIDILTDVKSAGLRVMQGQEYATSFYWNMDDRTRAFAKRFYAKMGKMPTNNQAGGYSAALQYLKAVNAIGSKDPQKVFAYLKTIKFDDAVTRHGTLRPGGRLVRDMYLVRAKKPEDQKGDWDYYDVVATIGPEQAFGPLSESRCAMDK | not soluble |
| MGRFHRHDDGTVHSHDHDHHGHSHDVGDHSGYETGRERIEVLEDIFHENDHCAADNKELFDAHQVRCINIMSSPGAGKTTVLQHVLRAAEGKVRVGVVEGDIETSLDADRLTGFGAQISLLNTGNGFGGECHLDAPMVSRALRGLDLDTLDVVLIENVGNLVCPAEFEVGEHSKAMIYSVTEGEDKPLKYPVMFRSVDAVVINKIDLLPYLDFDMELFMKNLRQVNPDAKVFEVSAKTGEGLDGWIEWLVGAK | not soluble |
| MRGKRVVLPDKDHQACGLFGVIDRSGRRFSGEMAINAMINMKVRGNGLGGGFAAYGIYPEYKDYYALHVMFQDWDMEAKHRVDEFLDANFDVVYAEEIPVNPEANVASPPLFWRYFVSPNKKGDEKKLSDDDYVVKKVMEINTKINNAYVVSSGKDMGVFKGVGFPEDIAEYFMLAEEYKGYMWTAHSRFPTNTPGWWGGAHPFCILDWTVVHNGEISSYGTNKRYLEMFGYYCTLLTDTEVMAYAVDLLMRKQGLPIEIVSKIFAPPMWDHIDIMDEKKKKFYTALRMNYGPLLINGPWTIVVARHGEMFGITDRIRLRPITSGEKGDLLFVSSEESAIRAVCPDLDRVYTPMGGEPVIGRLKSREKELAKQLSEVE | not soluble |
| MSLTNRSGKDFADEKLLTVLAEVERDLEITYDDLQKQAIIGAMNQQFFILTGGPGTGKTTIINGFIETYARLHQLDLDPDHYNDDVFPILLAAPTGRASRRMNELTGLPAATIHRHLGLGQDEAEDALGNELSGALLIVDEFSMVDTWLANKLFQAIPGSMKVLLVGDADQLPSVGPGQIFADLLKIPEIPSVKLDKIFRQGDDSTITDLAHHIKDGQLPSDFTAKKPDRSYFEVSANFVPQMVEQIASAWQKRGNNPFELQILAPMYKGMAGINAMNVLLQNLFNPLNDRLEFALGDMKFREGDKVLHLVNDAEANVFNGDLGQIVELIAAKYTDSKQDELVMDFDGQELTYPRAEWYKITLAYAMSIHKSQGSEFSTVIVPMVSSYSRMLERNLLYTAITRAKQSLILLGEERAFAQAVAREGANRKTYLIERFMGENEGHHHHHH | not soluble |
| MGSDKIHHHHHHMLPSQRHAFSIPEDVIYLDAAYMSPIPNIATEAGCDGVLVKAAPWDMTINSYYDEVERVRELAASFVGASIDDVGVIPATSYGIAVAAANVHVTPGSVIMMMDNEHTSHRYAWYELAEKKGATVVTVPRRPDQEWGSALAAAIKGSTVPVSVVAGTIVHWFEGMSVDIEVVADAAHAVGAALVMDGTQWVGAVPFDVSRIRPDFLSFATYKFLLGPYRLAFLYADKKWQEAGKPIEFHSWNRKGGERPDFYLETMPDYLPGARRFDMGERSDFAVLPIAIRSLELLQSWGSTAVFERLVHLNELIWKEAEARGFEGPRKDLRAPHISVIELGQRFRPDFARNLKDNKAFVTVRGTKMRITPHVYNEEHDIRRLFELVDSLTR | not soluble |
| MADSTKAGLKKPAFTKVDQLRPGTSGHNVNVKIVSTKMVLQKGRADGPQARQLRISECIVGDETGVIVFTARNDQVDLMKEGSTVTLRNAKIDMYKGSMRLAVDKWGRVEVTEPASFKVKEDTNMSLIEYELVNVVE | soluble |
| WTKKTLGSLFELKKGEMLEKELLAPDGKYEYFNGGIKASGRTNEFNTFKNTISIIIGGSCGYVRLADKDYFCGQSSCTLTVLDPLEIDLKFAYYALKSQEEKITSLASGTTIKNIRLSDLKDLPIPLVKSIQDQRTIAHALSVFDL | soluble |
| LRSRRKPSSRIGRRPSTTQDRISTVGIELFTEQGFDATSVDEVAEASGIARRTLFRYFPSKNAIPWGDFDAHLAEMRAQLAAQPDDIPIVDGLTAALLQFNAFPASEEINHRKRMGLILRVPALQAYSVVMYEGWRNVIAEYVASRLGTSPTDHVPRTVGYLLLGVAMSAYEQWLDDDSLELNELLASGMQSLYDGLSSLGEPDTRT | soluble |
| SMLSTEGREGFVVKVRGLPWSCSAEEVMRFFSDCKIQNGTSGVRFIYTREGRPSGEAFVELESEDEVKLALKKDRETMGHRYVEVFKSNSVEMDWVLKHTGPNSPDTANDGFVRLRGLPFGCSKEEIVQFFSGLEIVPNGMTLPVDFQGRSTGEAFVQFASQEIAEKALKKHKERIGHRYIEIFKSSRAEVRTHYDPPRKLMTMQRPGPYDRPGAGRGYNSIGRGAGFERMRRGAYGGGYGGYDDYGGYNDGYGFGSDRFGRDLNYCFSGMSDHRYGDGGSSFQSTTGHCVHMRGLPYRATENDIYNFFSPLNPMRVHIEIGPDGRVTGEADVEFATHEDAVAAMAKDKANMQHRYVELFLNSTAGTSGGAYDHSYVELFLNSTAGASGGAYGSQMMGGMGLSNQSSYGGPASQQLSGGYGGGYGGQSSMSGYDQVLQENSSDYQSNLA | not soluble |
| MDNRIPSALTTSVKSPKTPSGIPFLIRERDVIKAILEFLEIRGLHITQLSLEREAGVINGAFSDDLLFLRQLILDGQWDNALDFVEPLKPVNEFDFGAFRYNITKYKFFELLCVKLEPGPLHDNDFAVEELVECLKDLEHICPTPEDYRHLCALLTLPKLSDHEDFKNWNPSSARVECFNKVNQLCGHLLPPTGKEKDRGDDANSSNDRLTGLITKGRFYEGCVDYCQAQAIGDKRGIDAGPMPSEMLTFRPKLGSADLSLVCWLEMVGKEQFSMPFKQKQLELKVDHIRKPKLEAPWTETIMATPIKPGGQFPHNLVPSSKLKFAEKMSQSMTMSMLPPADLTTSMFPSVPRGHPMSQSTAAGFCLGTAITEADAMAQSLLIDEMMESSQLARTSRPDTLRGVGMMMTGDTIVPVQPAQVMINAPSQLSSQMMSMSMAPQVMAPIAPMAQNMINYDFAPVRRQLDEMARRSLPPSRLPTVPELGSPAVNSHHEENLMTQSRLFQQFSAAKQINEMVLPRGVGGVVGAAGAVGGAHVLPLQSQERLFQQRVAAAPGFQNGAQIPNQSMVPQGVPMSHQIRPQSIAGLPQAQPQVPQQLQRPVSAPTGMGVQFVPVCRYEDSQAIRATGFHPSGRYFALGTNSKQLHICLYPDTKRTQSRPMAYEQTKNAEIAVTRPKQHRGSVYCLSFNPNGDLLATGSNDKTIRLMAFNEDSCRIGAEMELTCHDGTVRDLIFIESSINRSTILVSGGAGNCHLNVTDCNTGQLIQSMKGHTAPILGLYTWSQAGNQFVSCSQDKTIRFWDLRQQTAVNVISPGSNKSHNASPVTSVCVDPNGKLLVSGHEDASVALFDIGGNRILQTFRPHGDEVRTVRFSNAAYYLLTASYDKRVVISDMRGDLMAPLMYLPVAEHSDKVVQCRWHPHDFSFLSTSADRSAVLWSLPNR | not soluble |
| MADVEDGEETCALASHSGSSGSKSGGDKMFSLKKWNAVAMWSWDVECDTCAICRVQVMDACLRCQAENKQEDCVVVWGECNHSFHNCCMSLWVKQNNRCPLCQQDWVVQRIGKLEHHHHHH | soluble |
| MGSDKIHHHHHHMNLVMEKTFEQYEKLFSMEEQKREDVFRYTMMRPFEKMWTAIQVPLKAKEPNGYDVIMAAKMLGYLDVRDAESGQKALQILKESHVSETAESALRQCIFFAEREQLRVNAKEIKFGLYIADPNKLQLQKGYCGFGGIPGFIHVWINPNSYNLPRIPSIIAHEFHHNVRFSYIDFHHGSVSVGDYLVIEGLAESFARELFGTERLGPWVTRFDHEDLQYSIDVINEVLDVKGFSEVSRYMFGDPIANDQGFKPAGLSAFAGYAVGYHAVQSFMNQHHITISEATRLDAKTIISQCGLFLHEKSVTYSGAF | not soluble |
